# B1: β-Klotho walked dimer BK_R1c_D15 (designed binder)
# chain: CLPDEFQCGSGRCIPQTWVCDGLNDCGDGSDEPPAHCSAPASEPPGSLCRSNQFTCGNGNCIPQPWVCDGEDDCGDDSDEESCKEHT
# B2: β-Klotho-binding monomer bKmutM28 (designed binder)
# chain: CPWFHHFKCRNGQRIPLHLVCDGVPDCGDDSDETDCGDSHILPFSTPGPST
# B3: β-Klotho walked dimer bKWD01 (designed binder)
# chain: CLPDEFQCGSGRCIPQHWLCDGLNDCGDGSDEPPAHCSAPASEPPGSLCRAGEFRCSNGRCVPLTWLCDGEDDCQDNSDEKNCAQPT
# B4: β-Klotho walked dimer BK_R1c_D14 (designed binder)
# chain: CLPDEFQCGSGRCIPQTWVCDGLNDCGDGSDEPPAHCSAPASEPPGSLCRSDEFRCGNGRCIPLTWVCDGEDDCQDSSDETGCTTPGHT
# B5: BK_RI_D05 (designed binder)
# chain: CAAGQFRCHNSDTCLPGAWVCDGDNDCGDNSDEASCQKRTCHSFNQFECRNGQCIPLHLVCDGVPDCGDNSDETDCGDSHILPFSTPGPST
# Assays:
# huR1b = assay: ELISA
# huR4 [1] = assay: ELISA
# [2] = biological target: T1, recombinant human β-Klotho (UniProt Q86Z14 53-996); assay: binding
# T1 sequence (Q86Z14 53-996): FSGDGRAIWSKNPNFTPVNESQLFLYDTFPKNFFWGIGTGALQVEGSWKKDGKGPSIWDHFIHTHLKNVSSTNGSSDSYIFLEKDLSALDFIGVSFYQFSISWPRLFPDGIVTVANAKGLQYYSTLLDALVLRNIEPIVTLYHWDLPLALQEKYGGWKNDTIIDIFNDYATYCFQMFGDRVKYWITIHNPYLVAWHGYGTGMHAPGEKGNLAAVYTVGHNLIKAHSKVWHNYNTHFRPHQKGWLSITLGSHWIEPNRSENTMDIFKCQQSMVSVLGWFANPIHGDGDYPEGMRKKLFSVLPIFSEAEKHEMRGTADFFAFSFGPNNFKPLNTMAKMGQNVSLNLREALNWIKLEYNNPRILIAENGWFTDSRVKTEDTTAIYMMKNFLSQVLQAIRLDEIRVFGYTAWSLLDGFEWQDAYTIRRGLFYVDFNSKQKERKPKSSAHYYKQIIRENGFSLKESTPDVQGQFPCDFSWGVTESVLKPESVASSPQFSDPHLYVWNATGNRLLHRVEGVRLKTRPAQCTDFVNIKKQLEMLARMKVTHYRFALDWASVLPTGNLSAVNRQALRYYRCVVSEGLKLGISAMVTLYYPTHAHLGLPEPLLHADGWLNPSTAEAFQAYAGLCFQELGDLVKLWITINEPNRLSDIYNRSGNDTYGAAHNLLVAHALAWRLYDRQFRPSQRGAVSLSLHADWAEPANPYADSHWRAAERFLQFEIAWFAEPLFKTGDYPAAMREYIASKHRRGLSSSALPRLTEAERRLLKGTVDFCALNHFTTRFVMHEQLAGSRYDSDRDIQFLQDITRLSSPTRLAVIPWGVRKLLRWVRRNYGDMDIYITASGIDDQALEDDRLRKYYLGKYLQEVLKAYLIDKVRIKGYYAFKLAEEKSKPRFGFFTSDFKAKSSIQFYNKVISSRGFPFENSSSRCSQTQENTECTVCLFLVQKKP
# [3] = biological target: T1, recombinant human β-Klotho; assay: ELISA
# [4] = biological target: T1, recombinant human β-Klotho; assay: ELISA; remark: listed apart in the source
# huR4 [5] = assay: Alphascreen inhibition; FGF21/BK+R4
Binder,EC50 (huR4 [1]),EC50 [2],also measured
CGAGQFTCRDTNICISRAWRCDGVDDCEDNSDEADCSQDPEFHKV (designed binder) [R1c_M08],–,–,EC50 (huR1b): 17 nM
CRLNEFPCGSGSCISLHWVCDSVPDCRDDSDETDCPERT (designed binder) [R1c_M33],~300 nM,–,–
B1,–,9.1 nM,–
B2,–,–,EC50 [3]: 214 nM
B3,–,0.05 nM,EC50 [4]: < 0.4 nM
B4,–,23 nM,–
B5,45.1 nM,–,–
CLSDQFTCRSTNICLPLQWVCDGDDDCEDNSDEEDCSAPASEPPGSL (designed binder) [R1c_M31],~300 nM,–,IC50 (huR4 [5]): 5000 nM; EC50 (huR1b): 112 nM

# — patent US20110150901A1 (published 2011)
